Reference: IntAct's records for PubMed 31515488

B1: Tektin-4 (Homo sapiens), Q8WW24 (parent)
chain: MAQTVPPCELPCKEYDVARNTGAYTSSGLATASFRTSKYLLEEWFQNCYARYHQAFADRDQSERQRHESQQLATETQALAQRTQQDSTRTVGERLQDTHSWKSELQREMEALAAETNLLLAQKQRLERALDATEVPFSITTDNLQCRERREHPNLVRDHVETELLKEAELIRNIQELLKRTIMQAVSQIRLNREHKETCEMDWSDKMEAYNIDETCGRHHSQSTEVQAHPYSTTFQESASTPETRAKFTQDNLCRAQRERLASANLRVLVDCILRDTSEDLRLQCDAVNLAFGRRCEELEDARYKLHHHLHKTLREITDQEHNVAALKQAIKDKEAPLHVAQTRLYLRSHRPNMELCRDAAQFRLLSEVEELNMSLTALREKLLEAEQSLRNLEDIHMSLEKDIAAMTNSLFIDRQKCMAHRTRYPTILQLAGYQ
B2: Zinc finger protein RFP (Homo sapiens), P14373 (parent)
chain: MASGSVAECLQQETTCPVCLQYFAEPMMLDCGHNICCACLARCWGTAETNVSCPQCRETFPQRHMRPNRHLANVTQLVKQLRTERPSGPGGEMGVCEKHREPLKLYCEEDQMPICVVCDRSREHRGHSVLPLEEAVEGFKEQIQNQLDHLKRVKDLKKRRRAQGEQARAELLSLTQMEREKIVWEFEQLYHSLKEHEYRLLARLEELDLAIYNSINGAITQFSCNISHLSSLIAQLEEKQQQPTRELLQDIGDTLSRAERIRIPEPWITPPDLQEKIHIFAQKCLFLTESLKQFTEKMQSDMEKIQELREAQLYSVDVTLDPDTAYPSLILSDNLRQVRYSYLQQDLPDNPERFNLFPCVLGSPCFIAGRHYWEVEVGDKAKWTIGVCEDSVCRKGGVTSAPQNGFWAVSLWYGKEYWALTSPMTALPLRTPLQRVGIFLDYDAGEVSFYNVTERCHTFTFSHATFCGPVRPYFSLSYSGGKSAAPLIICPMSGIDGFSGHVGNHGHSMETSP
partner: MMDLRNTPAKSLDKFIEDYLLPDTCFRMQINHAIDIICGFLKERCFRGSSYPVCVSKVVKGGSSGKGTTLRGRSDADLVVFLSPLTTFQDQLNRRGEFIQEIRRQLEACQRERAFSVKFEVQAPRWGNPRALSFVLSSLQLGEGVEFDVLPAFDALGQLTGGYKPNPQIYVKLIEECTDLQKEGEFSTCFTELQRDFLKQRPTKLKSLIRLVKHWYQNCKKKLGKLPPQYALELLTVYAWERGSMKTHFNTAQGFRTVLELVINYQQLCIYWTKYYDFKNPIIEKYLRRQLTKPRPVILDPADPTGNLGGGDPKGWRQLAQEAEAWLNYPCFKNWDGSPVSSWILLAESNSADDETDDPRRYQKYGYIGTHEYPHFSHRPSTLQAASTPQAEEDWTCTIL
B3: Notch homolog 2 N-terminal-like protein A (Homo sapiens), Q7Z3S9 (parent)
chain: MCVTYHNGTGYCKCPEGFLGEYCQHRDPCEKNRCQNGGTCVAQAMLGKATCRCASGFTGEDCQYSTSHPCFVSRPCLNGGTCHMLSRDTYECTCQVGFTGKECQWTDACLSHPCANGSTCTTVANQFSCKCLTGFTGQKCETDVNECDIPGHCQHGGTCLNLPGSYQCQCLQGFTGQYCDSLYVPCAPSPCVNGGTCRQTGDFTFECNCLPETVRRGTELWERDREVWNGKEHDEN
partner: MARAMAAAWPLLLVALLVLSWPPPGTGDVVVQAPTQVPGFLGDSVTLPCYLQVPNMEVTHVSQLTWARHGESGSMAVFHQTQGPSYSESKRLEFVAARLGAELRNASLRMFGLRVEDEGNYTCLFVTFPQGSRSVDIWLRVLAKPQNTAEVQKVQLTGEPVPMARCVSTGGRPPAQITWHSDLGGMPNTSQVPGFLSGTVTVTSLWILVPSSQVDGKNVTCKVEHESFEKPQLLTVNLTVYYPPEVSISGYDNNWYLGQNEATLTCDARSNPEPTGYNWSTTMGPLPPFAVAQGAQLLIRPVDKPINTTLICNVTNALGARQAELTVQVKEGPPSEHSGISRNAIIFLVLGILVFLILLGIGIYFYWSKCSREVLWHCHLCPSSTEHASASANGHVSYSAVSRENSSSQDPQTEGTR
B4: Coiled-coil domain-containing protein 172 (Homo sapiens), P0C7W6 (parent)
chain: MSLESLFQHIIFTEHQAEESRRLMREVRSEITRCREKIKKATEELNEEKIKLESKVQQFFEKSFFLQLLKAHENALEKQYSEITNHRNMLLQTFEAIKKQMIEEEDKFIKEITDFNNDYEITKKRELLMKENVKIEISDLENQANMLKSEMKSMEHDSSQLNELQKQKSELIQELFTLQRKLKVFEDEENESICTTKYLEAEKIKISEKPQNDTECLRLKKELELYKEDDMESVYEALQTEIEFLELTLAQKDLQESK
B5: Protein transport protein (Homo sapiens), Q15437 (parent)
chain: MATYLEFIQQNEERDGVRFSWNVWPSSRLEATRMVVPLACLLTPLKERPDLPPVQYEPVLCSRPTCKAVLNPLCQVDYRAKLWACNFCFQRNQFPPAYGGISEVNQPAELMPQFSTIEYVIQRGAQSPLIFLYVVDTCLEEDDLQALKESLQMSLSLLPPDALVGLITFGRMVQVHELSCEGISKSYVFRGTKDLTAKQIQDMLGLTKPAMPMQQARPAQPQEHPFASSRFLQPVHKIDMNLTDLLGELQRDPWPVTQGKRPLRSTGVALSIAVGLLEGTFPNTGARIMLFTGGPPTQGPGMVVGDELKIPIRSWHDIEKDNARFMKKATKHYEMLANRTAANGHCIDIYACALDQTGLLEMKCCANLTGGYMVMGDSFNTSLFKQTFQRIFTKDFNGDFRMAFGATLDVKTSRELKIAGAIGPCVSLNVKGPCVSENELGVGGTSQWKICGLDPTSTLGIYFEVVNQHNTPIPQGGRGAIQFVTHYQHSSTQRRIRVTTIARNWADVQSQLRHIEAAFDQEAAAVLMARLGVFRAESEEGPDVLRWLDRQLIRLCQKFGQYNKEDPTSFRLSDSFSLYPQFMFHLRRSPFLQVFNNSPDESSYYRHHFARQDLTQSLIMIQPILYSYSFHGPPEPVLLDSSSILADRILLMDTFFQIVIYLGETIAQWRKAGYQDMPEYENFKHLLQAPLDDAQEILQARFPMPRYINTEHGGSQARFLLSKVNPSQTHNNLYAWGQETGAPILTDDVSLQVFMDHLKKLAVSSAC
partner: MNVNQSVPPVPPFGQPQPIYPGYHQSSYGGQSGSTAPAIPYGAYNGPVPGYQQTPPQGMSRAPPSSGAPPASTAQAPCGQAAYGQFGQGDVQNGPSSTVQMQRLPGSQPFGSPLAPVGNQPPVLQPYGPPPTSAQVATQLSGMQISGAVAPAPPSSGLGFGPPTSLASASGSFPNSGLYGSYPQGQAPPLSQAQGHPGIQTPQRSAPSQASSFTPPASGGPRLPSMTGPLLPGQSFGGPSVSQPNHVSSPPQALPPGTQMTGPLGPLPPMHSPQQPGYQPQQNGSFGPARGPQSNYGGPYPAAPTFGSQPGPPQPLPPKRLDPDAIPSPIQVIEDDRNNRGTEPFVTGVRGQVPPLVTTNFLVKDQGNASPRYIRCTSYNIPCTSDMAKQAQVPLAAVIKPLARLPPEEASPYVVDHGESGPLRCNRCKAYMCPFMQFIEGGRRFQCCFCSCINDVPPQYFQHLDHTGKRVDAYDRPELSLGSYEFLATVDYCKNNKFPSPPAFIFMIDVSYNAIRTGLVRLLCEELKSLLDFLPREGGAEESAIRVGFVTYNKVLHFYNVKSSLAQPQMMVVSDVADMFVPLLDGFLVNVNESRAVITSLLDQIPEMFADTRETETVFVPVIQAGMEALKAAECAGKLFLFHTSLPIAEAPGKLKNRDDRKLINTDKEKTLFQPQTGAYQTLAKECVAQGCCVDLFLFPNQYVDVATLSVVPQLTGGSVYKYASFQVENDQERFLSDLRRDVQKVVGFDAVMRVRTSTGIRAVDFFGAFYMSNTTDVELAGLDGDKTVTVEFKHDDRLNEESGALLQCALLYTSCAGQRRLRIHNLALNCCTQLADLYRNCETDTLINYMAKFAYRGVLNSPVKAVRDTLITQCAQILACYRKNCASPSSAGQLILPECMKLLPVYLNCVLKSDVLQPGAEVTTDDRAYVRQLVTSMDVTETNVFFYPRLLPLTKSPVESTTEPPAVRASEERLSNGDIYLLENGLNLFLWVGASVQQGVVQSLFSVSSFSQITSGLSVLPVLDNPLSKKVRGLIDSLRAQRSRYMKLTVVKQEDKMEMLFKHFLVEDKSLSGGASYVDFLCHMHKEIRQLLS
B6: Fibronectin type III and SPRY domain-containing protein 2 (Homo sapiens), A1L4K1 (parent)
chain: MEEESGEELGLDRSTPKDFHFYHMDLYDSEDRLHLFPEENTRMRKVVQAEMANESRGAGDGKAQRDLQEEVDELVHLYGLEDDHELGDEFVDENIPRTGVSEYPPYMMKRRDPAREQRDWRLSGEAAEAEDLGFGGWGSAGQCQDLREAYRYTHGRASEEYECYVIPEEEDEEEAADVFCVTCKTPIRAFQKVFDEHKEHEVIPLNEALESAKDEIHKNMYKLEKQIIEMENFANHLEEVFITVEENFGKQEQNFESHYNEILETLAQKYEEKIQALGEKKKEKLEALYGQLVSCGENLDTCKELMETIEEMCHEEKVDFIKDAVAMADRLGKFLKTKTDVEISAQPEFEDQTLDFSDVEQLMGSINTIPAPSAPVINPQVPNSATGSSVRVCWSLYSDDTVESYQLSYRPVQDSSPGTDQAEFTVTVKETYCSVTNLVPNTQYEFWVTAHNRAGPSPSSERAVYMTAPSPPIIKTKEIRSCEEAVLICWESGNLNPVDSYTVELTQAESPEASGVTESVVGIPTCESVVQLQPGRSYIIYVRALNMGGPSVRSEPATVHTIGSYFRLNKDTCHPWLTISEDGLTAVRSERRTPARELSPSDTHFTRCVAVMGNLIPVRGHHYWEVEVDEHLDYRVGVAFADVRKQEDLGANCLSWCMRHTFASSRHKYEFLHNRTTPDIRITVPPKKIGILLDYEHSKLSFFNVDLSQHLYTFSCQLHEFVHPCFSLEKPGCLKVHNGISMPKHVTFY
partner: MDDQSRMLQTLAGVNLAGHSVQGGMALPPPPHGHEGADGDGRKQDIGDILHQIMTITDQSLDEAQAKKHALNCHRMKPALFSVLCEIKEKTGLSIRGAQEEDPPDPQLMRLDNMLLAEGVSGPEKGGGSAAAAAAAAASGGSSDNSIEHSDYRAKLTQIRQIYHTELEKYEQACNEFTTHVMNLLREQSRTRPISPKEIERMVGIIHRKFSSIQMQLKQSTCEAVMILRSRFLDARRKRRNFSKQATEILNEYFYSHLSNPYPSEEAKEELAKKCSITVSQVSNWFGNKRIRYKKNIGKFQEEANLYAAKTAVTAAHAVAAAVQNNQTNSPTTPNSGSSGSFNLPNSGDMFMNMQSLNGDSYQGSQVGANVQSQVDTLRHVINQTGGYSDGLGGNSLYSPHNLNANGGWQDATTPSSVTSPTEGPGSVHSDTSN

Variants of: B1
Conditions: with trip6_human TRIP6, Q15654
trip6_human TRIP6, Q15654, sequence (Q15654 whole entry): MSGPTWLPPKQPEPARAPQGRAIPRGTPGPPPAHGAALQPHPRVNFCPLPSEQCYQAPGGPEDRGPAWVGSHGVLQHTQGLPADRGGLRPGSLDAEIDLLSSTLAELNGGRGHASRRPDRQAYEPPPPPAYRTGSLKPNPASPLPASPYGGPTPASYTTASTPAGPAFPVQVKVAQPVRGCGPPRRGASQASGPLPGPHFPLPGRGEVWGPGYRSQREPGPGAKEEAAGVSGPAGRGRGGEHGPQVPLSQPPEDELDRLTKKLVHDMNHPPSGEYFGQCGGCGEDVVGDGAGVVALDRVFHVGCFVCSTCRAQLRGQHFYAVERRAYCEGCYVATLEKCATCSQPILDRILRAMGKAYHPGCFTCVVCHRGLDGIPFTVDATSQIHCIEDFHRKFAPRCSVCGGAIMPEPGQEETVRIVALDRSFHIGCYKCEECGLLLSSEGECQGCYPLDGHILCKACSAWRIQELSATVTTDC

| Variant | effect of a mutation on the interaction |
| --- | --- |
| R64W | with no effect |
| R255C | with no effect |
| C272S | with no effect |
| R82C | with no effect |

Variants of: B1
Conditions: with maga4_human MAGEA4, P43358
maga4_human MAGEA4, P43358, sequence (P43358 whole entry): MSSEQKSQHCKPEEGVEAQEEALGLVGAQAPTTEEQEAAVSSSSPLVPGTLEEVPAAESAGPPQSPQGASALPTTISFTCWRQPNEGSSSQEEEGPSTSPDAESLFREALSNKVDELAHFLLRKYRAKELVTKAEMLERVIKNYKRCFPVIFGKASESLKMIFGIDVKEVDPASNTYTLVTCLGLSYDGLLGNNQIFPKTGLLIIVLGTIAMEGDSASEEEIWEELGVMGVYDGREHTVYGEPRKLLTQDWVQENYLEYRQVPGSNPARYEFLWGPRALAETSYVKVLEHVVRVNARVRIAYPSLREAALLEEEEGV

| Variant | effect of a mutation on the interaction |
| --- | --- |
| R64W | with no effect |
| R255C | with no effect |
| C272S | with no effect |
| R82C | with no effect |

Variants of: B1
Conditions: with atg5_human ATG5, Q9H1Y0
atg5_human ATG5, Q9H1Y0, sequence (Q9H1Y0 whole entry): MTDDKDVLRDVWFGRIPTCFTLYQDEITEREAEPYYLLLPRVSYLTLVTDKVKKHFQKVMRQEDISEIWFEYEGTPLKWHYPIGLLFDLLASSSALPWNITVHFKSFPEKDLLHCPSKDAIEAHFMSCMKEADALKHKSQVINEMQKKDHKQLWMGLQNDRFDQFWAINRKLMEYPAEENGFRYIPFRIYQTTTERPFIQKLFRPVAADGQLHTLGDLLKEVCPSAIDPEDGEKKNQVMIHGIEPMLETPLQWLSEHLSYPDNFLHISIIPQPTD

| Variant | effect of a mutation on the interaction |
| --- | --- |
| R255C | with no effect |
| R82C | with no effect |
| D403N | with no effect |

Variants of: B2
Conditions: with oas1_human OAS1, P00973

| Variant | effect of a mutation on the interaction |
| --- | --- |
| N355S | disrupting interaction strength |

Variants of: B3
Conditions: with pvr_human PVR

| Variant | effect of a mutation on the interaction |
| --- | --- |
| R74Q | with no effect |
| A115T | with no effect |

Variants of: B4
Conditions: with fa13c_human FAM13C

| Variant | effect of a mutation on the interaction |
| --- | --- |
| F60L | disrupting interaction strength |
| I10V | with no effect |

Variants of: B4
Conditions: with dctn2_human DCTN2, Q13561
dctn2_human DCTN2, Q13561, sequence (Q13561 whole entry): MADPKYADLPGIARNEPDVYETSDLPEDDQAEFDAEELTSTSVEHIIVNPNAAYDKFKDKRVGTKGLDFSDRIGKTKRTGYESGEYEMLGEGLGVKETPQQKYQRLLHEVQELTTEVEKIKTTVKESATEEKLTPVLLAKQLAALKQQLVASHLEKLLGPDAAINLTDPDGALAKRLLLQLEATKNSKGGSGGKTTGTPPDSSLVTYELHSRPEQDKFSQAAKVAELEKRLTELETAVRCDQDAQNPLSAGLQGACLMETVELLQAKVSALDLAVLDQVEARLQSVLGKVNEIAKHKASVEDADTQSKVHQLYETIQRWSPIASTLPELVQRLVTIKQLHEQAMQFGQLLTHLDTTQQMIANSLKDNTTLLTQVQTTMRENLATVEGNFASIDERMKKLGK

| Variant | effect of a mutation on the interaction |
| --- | --- |
| F60L | disrupting interaction strength |
| I10V | with no effect |

Variants of: B4
Conditions: with smce1_human SMARCE1, Q969G3
smce1_human SMARCE1, Q969G3, sequence (Q969G3 whole entry): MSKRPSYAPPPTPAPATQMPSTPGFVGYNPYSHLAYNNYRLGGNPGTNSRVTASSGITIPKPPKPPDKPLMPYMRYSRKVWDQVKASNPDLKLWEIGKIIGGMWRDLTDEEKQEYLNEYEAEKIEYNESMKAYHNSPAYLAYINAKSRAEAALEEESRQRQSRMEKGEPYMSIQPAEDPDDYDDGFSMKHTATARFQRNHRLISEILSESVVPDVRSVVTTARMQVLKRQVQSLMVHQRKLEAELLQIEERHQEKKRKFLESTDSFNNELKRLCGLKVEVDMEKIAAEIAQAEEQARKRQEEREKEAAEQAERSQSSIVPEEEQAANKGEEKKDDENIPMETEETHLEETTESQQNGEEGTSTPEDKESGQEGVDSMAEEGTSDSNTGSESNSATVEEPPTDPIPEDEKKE

| Variant | effect of a mutation on the interaction |
| --- | --- |
| F60L | disrupting interaction strength |
| I10V | with no effect |

Variants of: B4
Conditions: with mesh1_human HDDC3, Q8N4P3
mesh1_human HDDC3, Q8N4P3, sequence (Q8N4P3 whole entry): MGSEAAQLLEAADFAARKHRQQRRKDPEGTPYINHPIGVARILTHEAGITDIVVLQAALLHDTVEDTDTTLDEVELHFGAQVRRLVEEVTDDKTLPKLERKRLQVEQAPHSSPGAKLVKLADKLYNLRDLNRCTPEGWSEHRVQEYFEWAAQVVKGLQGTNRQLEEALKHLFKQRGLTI

| Variant | effect of a mutation on the interaction |
| --- | --- |
| N145K | with no effect |
| I10V | with no effect |

Variants of: B5
Conditions: with sc24c_human SEC24C

| Variant | effect of a mutation on the interaction |
| --- | --- |
| V426I | with no effect |

Variants of: B6
Conditions: with pbx3_human PBX3, P40426

| Variant | effect of a mutation on the interaction |
| --- | --- |
| K333T | with no effect |
| E720K | with no effect |
